B1: Forkhead box protein O3 (Mus musculus), Q9WVH4 (parent)
chain: MAEAPASPVPLSPLEVELDPEFEPQSRPRSCTWPLQRPELQASPAKPSGETAADSMIPEEDDDEDDEDGGGRASSAMVIGGGVSSTLGSGLLLEDSAMLLAPGGQDLGSGPASAAGALSGGTPTQLQPQQPLPQPQPGAAGGSGQPRKCSSRRNAWGNLSYADLITRAIESSPDKRLTLSQIYEWMVRCVPYFKDKGDSNSSAGWKNSIRHNLSLHSRFMRVQNEGTGKSSWWIINPDGGKSGKAPRRRAVSMDNSNKYTKSRGRAAKKKAALQAAPESADDSPSQLSKWPGSPTSRSSDELDAWTDFRSRTNSNASTVSGRLSPILASTELDDVQDDDGPLSPMLYSSSASLSPSVSKPCTVELPRLTDMAGTMNLNDGLAENLMDDLLDNIALPPSQPSPPGGLMQRGSSFPYTAKSSGLGSPTGSFNSTVFGPSSLNSLRQSPMQTIQENRPATFSSVSHYGNQTLQDLLASDSLSHSDVMMTQSDPLMSQASTAVSAQNARRNVMLRNDPMMSFAAQPTQGSLVNQNLLHHQHQTQGALGGSRALSNSVSNMGLSDSSSLGSAKHQQQSPASQSMQTLSDSLSGSSLYSASANLPVMGHDKFPSDLDLDMFNGSLECDMESIIRSELMDADGLDFNFDSLISTQNVVGLNVGNFTGAKQASSQSWVPG
partner: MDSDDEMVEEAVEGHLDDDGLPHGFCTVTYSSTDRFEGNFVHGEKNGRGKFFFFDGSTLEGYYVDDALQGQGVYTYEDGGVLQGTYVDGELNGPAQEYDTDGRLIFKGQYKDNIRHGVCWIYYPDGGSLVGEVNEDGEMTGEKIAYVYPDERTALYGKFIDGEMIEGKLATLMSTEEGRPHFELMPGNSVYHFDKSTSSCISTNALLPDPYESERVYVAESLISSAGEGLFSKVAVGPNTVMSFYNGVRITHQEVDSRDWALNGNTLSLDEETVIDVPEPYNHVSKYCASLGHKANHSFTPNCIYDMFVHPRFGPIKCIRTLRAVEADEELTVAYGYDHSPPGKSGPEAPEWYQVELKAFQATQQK
B2: Histone-lysine N-methyltransferase SETD7 (Homo sapiens), Q8WTS6 (parent)
chain: B1 partner

Variants of B1 are the subject of the first assay. The settings on record: with setd7_human SETD7, Q8WTS6.
Turning to K270R, the “effect of a mutation on the interaction” value is on record as “disrupting interaction”.

Variants of B2 are the subject of the next assay. The settings on record: with foxo3_mouse Foxo3, Q9WVH4.
For MDSDDEMVEEAVEGHLDDDGLPHGFCTVTYSSTDRFEGNFVHGEKNGRGKFFFFDGSTLEGYYVDDALQGQGVYTYEDGGVLQGTYVDGELNGPAQEYDTDGRLIFKGQYKDNIRHGVCWIYYPDGGSLVGEVNEDGEMTGEKIAYVYPDERTALYGKFIDGEMIEGKLATLMSTEEGRPHFELMPGNSVYHFDKSTSSCISTNALLPDPYESERVYVAESLISSAGEGLFSKVAVGPNTVMSFYNGVRITHQEVDSRDWALNGNTLSLDEETVIDVPEPYNHVSKYCASLGHKANASFTPNCIYDMFVHPRFGPIKCIRTLRAVEADEELTVAYGYDHSPPGKSGPEAPEWYQVELKAFQATQQK [H297A], the “effect of a mutation on the interaction” value is listed as “disrupting interaction”.

The record behind these values is IntAct's records for PubMed 22402663.
